The target in the test is wild-type human Elp123 sub-complex (hElp123WT) (human) (UniProt O95163). The test can be described thus: SEC; gel filtration of purified hElp123 on Superose 6 Increase 10/300 GL; 20 mM HEPES, 150 mM NaCl, 5 mM DTT, pH 8.0; Elp1-Elp2-Elp3 trimer to dimer of trimers. For orientation: Size exclusion chromatography separates by hydrodynamic size, large species first.

“wild-type human Elp123 sub-complex (hElp123WT), O95163 1-1332; Q6IA86 1-826; Q9H9T3 1-547”: the stoichiometry N (as a rule, a count of units in the complex or per binding partner) was 2.

The values above are taken from publication PMC8113450.
